The record followed here is patent US20140056903A1 (Regeneron, published 2014).

The target in assay [1] is T1, human GFRα3 expressed with a C-terminal myc-myc-hexahistidine tag (human, UniProt O60609 32-374, biotinylated (sites not given) in ELISA format 2 and in the Octet cross-competition; not in SPR).
T1 construct: also called hGFRα3-mmh; hGFRα3-mmH
The assay can be described thus: Octet cross-competition; biotin-hGFRα3-mmH pre-saturated with first antibody H4H2295S. As to the method:
(§1) A cross-competition assay was conducted to assess the ability of select antibodies to compete with one another for binding to human GFRα3 using an Octet RED384 biosensor (Fortebio Inc.). The entire experiment was performed at 25° C. with the flow rate of 1000 rpm in Octet HBST buffer (0.01 M HEPES pH7.4, 0.15M NaCl, 3 mM EDTA, 0.05% v/v Surfactant P20, 0.1 mg/mL BSA). To assess whether 2 antibodies were able to compete with one another for binding to their respective epitopes on biotinylated recombinant human GFRα3 expressed with a C-terminal myc-myc-hexahistidine tag (biotin-hGFRα3-mmH; SEQ ID:370), around ˜1.2 nm of biotin-hGFRα3-mmH was first captured onto streptavidin-coated Octet sensor tips (Fortebio Inc, #18-5019) by submerging the tips for 1 minute into a 10 μg/mL solution of biotin-hGFRα3-mmH. The antigen coated sensor tips were then placed into wells containing 25 μg/mL solution of a first anti-GFRα3 monoclonal antibody for 4 minutes to saturate the biotin-hGFRα3-mmH surface. The sensor tips were then subsequently dipped into wells containing 25 μ/mL solution of a second anti-GFRα3 monoclonal antibody. The sensor tips were washed in Octet HBST buffer in between every step of the experiment. The real-time binding response was monitored during the course of the experiment and the binding response at the end of every step was recorded as shown in FIG. 9. The response of mAb-2 binding to biotin-hGFRα3-mmH pre-complexed with the first antibody was compared and competitive/non-competitive behavior of different anti-GFRα3 monoclonal antibodies was determined.

In assay [2] the target is T2, monkey GFRα3 expressed with a C-terminal myc-myc-hexahistidine tag (monkey (Mf), UniProt O60609 32-374 (human entry), limits assumed).
T2 construct: also called MfGFRα3-mmh; MfGFRα3-mmH
T2 chain: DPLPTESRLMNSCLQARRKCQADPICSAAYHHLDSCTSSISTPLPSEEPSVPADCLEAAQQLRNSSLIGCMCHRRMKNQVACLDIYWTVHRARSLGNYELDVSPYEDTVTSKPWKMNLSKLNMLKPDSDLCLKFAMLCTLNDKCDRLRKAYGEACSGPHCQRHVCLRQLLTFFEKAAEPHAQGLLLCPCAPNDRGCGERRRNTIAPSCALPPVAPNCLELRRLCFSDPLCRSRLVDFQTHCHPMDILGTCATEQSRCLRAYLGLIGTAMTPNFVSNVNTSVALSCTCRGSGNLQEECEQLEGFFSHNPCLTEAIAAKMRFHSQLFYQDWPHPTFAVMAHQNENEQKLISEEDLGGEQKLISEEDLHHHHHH
The assay can be described thus: SPR, Ab captured, 37C. The gist of the method: (§2)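 Antibodies captured on anti-mouse or anti-human IgG CM5 surfaces, in HBS-EP or PBS-P20 at pH 7.4. mmh-tagged GFRα3 injected at 200–7.4 nM and Fc-tagged at 100–3.7 nM, with association up to 4 min and dissociation up to 20 min. Data fitted 1:1; KD=kd/ka, t1/2=ln2/(60*kd).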
(Surface plasmon resonance follows binding to a sensor surface in real time, without labels.)

The target of assay [3] is T1, human GFRα3 expressed with a C-terminal …. The assay can be described thus: SPR, Ab captured, 37C. The gist of the method: as §2
The target is the same in assay [4]. The assay can be described thus: Octet cross-competition; biotin-hGFRα3-mmH pre-saturated with first antibody H4H2355S. As for the experimental part: as §1
(In general: In BLI a coated tip is dipped into the sample, and binding shifts an interference pattern.)

Assay [5] shares this target. The assay can be described thus: Octet cross-competition; biotin-hGFRα3-mmH pre-saturated with first antibody H4H2294S. As to the method: as §1
Assay [6] has the same target. The assay can be described thus: SPR, Ab captured, 25C. The essentials: as §2
Assay [7] has the same target. The assay can be described thus: Octet cross-competition; biotin-hGFRα3-mmH pre-saturated with first antibody H4H2212N. As to the method:
as §1

T1 sequence (O60609 other isoform, or with tags, fused parts or gaps limits assumed): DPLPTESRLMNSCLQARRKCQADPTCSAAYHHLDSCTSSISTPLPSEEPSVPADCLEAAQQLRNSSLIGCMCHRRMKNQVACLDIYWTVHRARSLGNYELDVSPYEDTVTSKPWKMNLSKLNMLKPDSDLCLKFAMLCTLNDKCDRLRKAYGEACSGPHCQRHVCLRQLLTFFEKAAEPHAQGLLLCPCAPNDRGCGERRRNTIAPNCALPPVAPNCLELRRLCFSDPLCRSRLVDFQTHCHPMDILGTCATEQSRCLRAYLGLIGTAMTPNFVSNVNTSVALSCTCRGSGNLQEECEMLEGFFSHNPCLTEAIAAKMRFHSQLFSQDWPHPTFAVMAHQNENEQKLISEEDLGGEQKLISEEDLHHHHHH

B1: H4H2350P (antibody, human IgG4, V domains shown)
VH: QVQLQESGPGLVKPSETLSLTCTVSGGSISTYYWSWFRQPPGKGLEWIGYIYYSGSTNHNPSLKSRVTISVDTSKNQFSLKLRSVTAADTAVYYCARVGPVGWGSWGNFDYWGQGTLVTVSS
VL: DIQLTQSPSFLSASVGDRVTITCWASQGISSYLAWSQQKPGKAPKLLIYAASTLQSGVPSRFSGSGSGTEFTLTISSLQPEDFATYYCQQLNSYPWTFGQGTKVEIK
notes: human IgG4 Fc (H4H)
As for B1, the “binding response of second antibody (nm)” value turned out to be 1.35 nm in assay [1], 1.44 nm in assay [4], 1.42 nm in assay [5] and 1.36 nm in assay [7]. In addition, the results for the Kd in assay [2], in assay [3] and in assay [6] were 12 nM, 9.61 nM and 2.01 nM, respectively. In addition, the dissociation rate constant (koff) (in general, a measure of how fast the partners let go of each other) in assay [2] turned out to be 0.000896 s⁻¹; in assay [3], 0.00128 s⁻¹; in assay [6] it was 0.000207 s⁻¹. Moreover, the kon (as a rule, a measure of how fast the partners come together) was 74800 M⁻¹ s⁻¹ in assay [2], 134000 M⁻¹ s⁻¹ in assay [3] and 103000 M⁻¹ s⁻¹ in assay [6]. The values for the t1/2 in assay [2], in assay [3] and in assay [6] were 13 min, 9 min and 56 min, respectively.
